The nature of the data set: Zetasizer measurement of zeta potential of liposomes. The format is physicochemical. The settings on record: CPP coupled after liposome preparation, eight equivalents relative to first lipid (FIG. 1). The method, then: The zeta potential can be determined by methods known in the art. The zeta potential may be determined after dilution of the liposomes to a lipid concentration of 0.95 mg/ml using a 50 mM phosphate buffer with a pH of 7.4. The default settings of the automatic mode of the Zetasizer Nano ZS from Malvern™ (Malvern Instruments Ltd., Worcestershire, United Kingdom) can be chosen as follows: number of measurements=3; run duration=10 s; number of runs=10; equilibration time=60 s; refractive index solvent 1.330; refractive index polystyrene cuvette 1.590; viscosity=0.8872 mPa s; temperature=25° C.; dielectric constant=78.5 F/m; backscattering mode (173°); automatic voltage selection; Smoluchowski equation.
The particle size, PDI and zeta potential of all liposomal formulations were determined at room temperature using a zetasizer Nano ZS from Malvern™ (Malvern Instruments Ltd., Worcestershire, United Kingdom). Size and PDI were measured after dilution to a lipid concentration of 0.076 mg/ml with a 10 mM phosphate buffer with a pH of 7.4 using the automatic mode. The zeta potential was determined after dilution to a lipid concentration of 0.95 mg/ml by a 50 mM phosphate buffer with a pH of 7.4. […]

With “RRRRRRRRRC (cyclo(RRRRRRRRRC); also: coupled to liposomes) [R9C, here coupled to liposomes after their preparation]”, the zeta potential entry is “only slightly positive”.

The record behind these values is patent US12390535B2, “Method of making oral dosage forms” (UNIVERSITÄT HEIDELBERG, priority 2018, dated 2025).
